Results: CN116406375A (UNIV SHANGHAI TECHNOLOGY, dated 2023)

Experiments:
[1] = target: SARS-CoV-2 B.1.617.2假病毒的刺突Δ19 (SARS-CoV-2); experiment: cell-based or functional assay
[2] = target: SARS-CoV-2 K417N+E484K+N501Y+D614G假病毒的刺突Δ19 (SARS-CoV-2, UniProt P0DTC2 14-1254); experiment: cell-based or functional assay
[3] = target: 真SARS-CoV-2英国变异株(B.1.1.7)病毒的刺突 (SARS-CoV-2); experiment: cell-based or functional assay
[4] = target: SARS-CoV-2刺突N501Y+D614G假病毒的刺突Δ19 (SARS-CoV-2, UniProt P0DTC2 14-1254); experiment: cell-based or functional assay
[5] = target: 野生型SARS-CoV-2假病毒的刺突Δ19 (SARS-CoV-2, UniProt P0DTC2 14-1254); experiment: cell-based or functional assay
[6] = target: T1, K417N+E484K+N501Y RBD (SARS-CoV-2, UniProt P0DTC2 319-541); experiment: BLI, biotinylated B.1.351 S-RBD on SA sensor, 1:1 Langmuir model
T1 construct: also called B.1.351S-RBD; B.1.351的刺突RBD

[7] = target: T2, SARS-CoV-2 S-RBD (SARS-CoV-2, UniProt P0DTC2 319-541); experiment: BLI, biotinylated S-RBD on SA sensor, 1:1 Langmuir model
T2 construct: also called WT S-RBD; 野生型(WT)S-RBD

Row | Binder | NT50(B.1.617.2) [1] | NT50(B.1.351) [2] | NT50, 真病毒中和 (B.1.1.7) [3] | NT50, 假病毒中和 (N501Y+D614G PSV) [4] | NT50, 假病毒中和 (野生型PSV) [5] | Kd [6] | Kd [7]
1 | S-D4 (antibody, V domains shown, also called S-D4二聚体; S-D4 IgG4) VH: QVQLQESGGGVVQPGRSLRLSCEVSGFTFSDYGMHWVRQAPGKGLEWVAVIWSEGSTEYYADSVKGRFTISRDNSKDTLYLQMNSLRAEDTAVYYCARPGYPTSTDRSPAAAGARQYYYYGMDVWGQGTTVTVSS VL: NFMLTQPHSVSESPGKTVTISCTRSGGSGAANYVQWYQQRPGSSPTTLIYEDSRRPPGVPDRFSGSVDTSSNSASLTISGLQTEDEADYYCQSYDSSNHVVFGGGTKLTVLG | 0.24 nM | 0.66 nM | 1.88 nM | 0.042 nM | 0.48 nM | – | –
2 | S-E6 (antibody, V domains shown, also called S-E6二聚体; 二聚体S-E6) VH: QVTLRESGPGLVKPSETLSLTCAVSGGSLSSVNYYWSWIRQHPGKGLEWIGYIYYSGSTNYNPSLKSRVTMSLDTSKNQFSLKLSSVTAADTAVYYCATPGAIMGALHIWGQGTLVTVSS VL: QAVLTQPSSASSTPGQRVIISCSGSSSNIGSNTVSWYQQVPGAAPKLLIYFDYRRPSGVPDRFSGTRSGTSASLGISGLQSEDEADYYCAAWDDSLSAWVFGRGTKLTVLG | 0.065 nM | 0.32 nM | 1.15 nM | 0.021 nM | 0.025 nM | – | –
3 | S-E6三聚体 (other, also called 三聚体S-E6) heavy (part 1 of 2): QVTLRESGPGLVKPSETLSLTCAVSGGSLSSVNYYWSWIRQHPGKGLEWIGYIYYSGSTNYNPSLKSRVTMSLDTSKNQFSLKLSSVTAADTAVYYCATPGAIMGALHIWGQGTLVTVSS heavy (part 2 of 2): GGGGSGGGGSGGGGSPGSGYIPEAPRDGQAYVRKDGEWVLLSTFLGHHHHHH light: QAVLTQPSSASSTPGQRVIISCSGSSSNIGSNTVSWYQQVPGAAPKLLIYFDYRRPSGVPDRFSGTRSGTSASLGISGLQSEDEADYYCAAWDDSLSAWVFGRGTKLTVLG | 0.007 nM | – | – | – | – | 0.58 nM | 0.0101 nM
4 | S-B8 (antibody, V domains shown, also called S-B8二聚体) VH: QVQLVQSGGGLIQPGGSLRLSCAASGFTVSLSHMNWVRQAPGKGLEWVSITYGDGNSDYADSVKGRFTISRDNSKNTLYLQMNSLRAEDTAVYYCAREYYYGMDVWGQGTTVTVSS VL: not shown | 0.37 nM | 1.2 nM | – | 0.53 nM | – | – | –
5 | S-B8三聚体 (other) heavy (part 1 of 2): QVQLVQSGGGLIQPGGSLRLSCAASGFTVSLSHMNWVRQAPGKGLEWVSITYGDGNSDYADSVKGRFTISRDNSKNTLYLQMNSLRAEDTAVYYCAREYYYGMDVWGQGTTVTVSS heavy (part 2 of 2): GGGGSGGGGSGGGGSPGSGYIPEAPRDGQAYVRKDGEWVLLSTFLGHHHHHH light: not shown | 0.15 nM | 0.35 nM | – | – | – | – | –
